Biological target: Full-length human AURKA^T288V (human, UniProt O14965 1-403, T288V)
Experiment: FP; competition with FITC-Tpx2 1-43

Sequence of Full-length human AURKA^T288V (O14965 other isoform, or with tags, fused parts or gaps T288V | T288V): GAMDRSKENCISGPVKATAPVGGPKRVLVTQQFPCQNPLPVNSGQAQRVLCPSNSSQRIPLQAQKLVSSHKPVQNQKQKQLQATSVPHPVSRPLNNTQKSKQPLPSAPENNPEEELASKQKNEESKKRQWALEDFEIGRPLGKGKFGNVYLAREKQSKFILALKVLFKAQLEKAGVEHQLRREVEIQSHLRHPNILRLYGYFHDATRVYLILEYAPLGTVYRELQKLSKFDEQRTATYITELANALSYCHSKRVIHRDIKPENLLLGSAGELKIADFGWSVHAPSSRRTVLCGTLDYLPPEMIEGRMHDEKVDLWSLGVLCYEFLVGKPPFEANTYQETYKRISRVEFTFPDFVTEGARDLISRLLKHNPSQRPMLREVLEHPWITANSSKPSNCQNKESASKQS

IC50: 680 nM
B1: pBora^18–120 (domain or fragment)
chain: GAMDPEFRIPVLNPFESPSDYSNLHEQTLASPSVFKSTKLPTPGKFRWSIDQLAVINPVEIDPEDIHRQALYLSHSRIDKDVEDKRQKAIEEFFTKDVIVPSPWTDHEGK
modifications: phosphorylated (kinase and sites not stated for the fluorescence polarisation assay)
